{"source": "patent US20100240040A1", "about": "“METHOD FOR SCREENING FOR SELECTIVE MODULATOR OF THE NF-KB PATHWAY ACTIVATION” (INSTITUT PASTEUR, priority 2007, published 2010)", "molecules": {"B1": {"name": "His-CC2-LZ: six his-tagged CC2-LZ peptide, recombinant, SEQ ID NO: 30 (humanised 31) (protein)", "chain": "MGSHHHHHHSSGLVPRGSHMASLEDLRQQLQQAEEALVAKQELIDKLKEEAEQHKIVMETVPVLKAQADIYKADFQAERHAREKLVEKKEYLQEQLEQLQREFNKL"}}, "biological_target": "T1, Biot-CC2-LZ (Mus musculus, UniProt O88522)", "T1 construct": "made in house; host or cells: chemical synthesis", "test": "HTRF assay, complex with Biot-CC2-LZ (negative and positive controls)", "assay_type": "binding", "conditions": "50 nM His-tagged protein with 50 nM Biot-CC2-LZ, Strept-Eu 2 nM, AntiHis-XL 7 nM", "excerpt": "The Homogeneous Time Resolved Fluorescence (HTRF®) assay reagents anti-(His)6 monoclonal antibody labeled with XL665 (MABHis6-XL) and streptavidin-Europium cryptate (streptavidin-EuK) were purchased from CIS-Bio. The His-CC2-LZ peptide (SEQ ID NO: 30 and 31) was purified as described in Agou et al., 2004a and the biotin tagged CC2-LZ peptide (SEQ ID NO: 28 and 29) was chemically synthezised as described in Wyler et al., 2007.\nIn HTRF experiments, the pure His-CC2-LZ protein was labeled by anti-His-XL665 mAb and biot-CC2-LZ was labeled by streptavidin-EuK. Dimerization of His-CC2-LZ and Biot-CC2-LZ leads the donor (Steptavidin-EuK) and the acceptor (anti-His-XL665) into close proximity. Upon excitation of Europium cryptate at 320 nm, FRET occurs between these two fluorophores, and XL665 re-emits a specific long-lived fluorescence at 665 nm.\nAll experiments were carried out in a black microplate Greiner (200 μl) at 25° C. The excitation wavelength was 320 nm and the fluorescence emissions were measured at 620 nm and at 665 nm to normalize the specific signal. Fluorescence emission was recorded at both wavelengths after an 50 μs delay, which reduces background noise introduced by the media and the free acceptor molecules. The FRET signal is calculated using the following equation:\nΔF=[(R−Rneg)/Rneg]*100 (1) […]", "data": [{"molecule": "B1", "values": [{"measurement": "FRET (ΔF %)", "value": "≦0%"}]}]}
